The source of these data is patent US20240279318A1 (NANJING LEGEND BIOTECH, published 2024).

For experiment [1], the target named is T1, AFP158/HLA-A*02:01 complex (human).
T1 construct: biotinylated on the BSP by BirA for ELISA and panning; also called biotinylated AFP158/HLA-A*02:01 complex; Bio-AFP158
Description: SPR; vs AS170036 VL1VH1.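 Note: crude scFv captured on sensor chip, peptide–HLA complex flowed over at several concentrations, KD estimated from association and dissociation kinetic rates.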
Description: (§1) The experiment was carried out as follows. The crude scFv protein were captured onto the sensorchip. Different concentrations (320, 160, 40 nM) of AFP158/HLA-A*02:01 complex flowed over the sensorchip surface, and were allowed to bind the antibody fragment for 100 s followed by injection of the running buffer to allow dissociation of the complex. On-rate (kd) and off-rate (kd) were calculated based on association and dissociation curve, and were used to estimate the equilibrium dissociation constant (KD).

Experiment [2] has as its target T1, AFP158/HLA-A*02:01 complex. Description: SPR, crude scFv captured.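 Note: Peptide–MHC complex flowed at several concentrations over sensorchip-captured scFv, Kd derived from on- and off-rates obtained from the association and dissociation curves.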
Description: as §1
Experiment [3] addresses T2, AFP158/HLA-A*02:01 complex (human).
T2 construct: flowed over the chip in SPR; also called AFP158 pro
Description: SPR, KD ratio to AS170036 VL1VH1.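 Note: crude scFv captured on a sensor chip, peptide–HLA complex passed over at several concentrations, association then buffer dissociation, KD derived from on- and off-rates.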

Experiment [4] concerns the target T2, AFP158/HLA-A*02:01 complex. Description: SPR, scFv captured, pMHC in flow.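 Note: complex injected at several concentrations over crude scFv, association then running-buffer dissociation, KD estimated from kinetic on- and off-rate constants.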

B1: AS170036 VL1VH1 HS57N (scFv)
scFv: QSALTQPRSVSGSPGQSVTISCAGTSSDVGSENYVSWYQQHPGKAPKLMIYQVNKRASGVPDRFSGSKSGNTASLTISGLQAEDEADYYCASYRSSDHNIVFGGGTKLTVLGGGGSGGGGSGGGGSEVQLVESGGGLVQPGGSLRLSCAASGFTFSSYAMSWVRQAPGKGLEWVSTINSGTGNPYYADSVKGRFTISRDNSKNTLYLQMNSLRAEDTAVYYCAKNFFDGSWFLGPPAMDYWGQGTLVTVSSHHHHHH
B1 gave an Affinity increase in experiment [1] of 1.5 fold. In experiment [2], this molecule came in with a Kd of 170 nM.

B2: LE32H (scFv)
scFv: QSALTQPRSVSGSPGQSVTISCAGTSSDVGSHNYVSWYQQHPGKAPKLMIYQVNKRASGVPDRFSGSKSGNTASLTISGLQAEDEADYYCASYRSSDHNIVFGGGTKLTVLGGGGSGGGGSGGGGSEVQLVESGGGLVQPGGSLRLSCAASGFTFSSYAMSWVRQAPGKGLEWVSTINSGTGSPYYADSVKGRFTISRDNSKNTLYLQMNSLRAEDTAVYYCAKNFFDGSWFLGPPAMDYWGQGTLVTVSSHHHHHH
notes: AS170036 VL1VH1 scFv mutein
As to B2, the Affinity increase in experiment [3] was 0.3 fold. Besides, binding in experiment [4] was characterised by a dissociation constant (Kd) of 830 nM.

B3: AS170036 VL1VH1 HW105F (scFv)
scFv: QSALTQPRSVSGSPGQSVTISCAGTSSDVGSENYVSWYQQHPGKAPKLMIYQVNKRASGVPDRFSGSKSGNTASLTISGLQAEDEADYYCASYRSSDHNIVFGGGTKLTVLGGGGSGGGGSGGGGSEVQLVESGGGLVQPGGSLRLSCAASGFTFSSYAMSWVRQAPGKGLEWVSTINSGTGSPYYADSVKGRFTISRDNSKNTLYLQMNSLRAEDTAVYYCAKNFFDGSFFLGPPAMDYWGQGTLVTVSSHHHHHH
B3 returned an Affinity increase in experiment [1] of 0.2 fold. Further, the dissociation constant (Kd) in experiment [2] came to 1400 nM.

B4: LD97Q (scFv)
scFv: QSALTQPRSVSGSPGQSVTISCAGTSSDVGSENYVSWYQQHPGKAPKLMIYQVNKRASGVPDRFSGSKSGNTASLTISGLQAEDEADYYCASYRSSQHNIVFGGGTKLTVLGGGGSGGGGSGGGGSEVQLVESGGGLVQPGGSLRLSCAASGFTFSSYAMSWVRQAPGKGLEWVSTINSGTGSPYYADSVKGRFTISRDNSKNTLYLQMNSLRAEDTAVYYCAKNFFDGSWFLGPPAMDYWGQGTLVTVSSHHHHHH
notes: AS170036 VL1VH1 scFv mutein
Regarding B4, the Affinity increase in experiment [3] is 0.4 fold. Binding in experiment [4] was put at a Kd of 580 nM.

B5: LD97W (scFv)
scFv: QSALTQPRSVSGSPGQSVTISCAGTSSDVGSENYVSWYQQHPGKAPKLMIYQVNKRASGVPDRFSGSKSGNTASLTISGLQAEDEADYYCASYRSSWHNIVFGGGTKLTVLGGGGSGGGGSGGGGSEVQLVESGGGLVQPGGSLRLSCAASGFTFSSYAMSWVRQAPGKGLEWVSTINSGTGSPYYADSVKGRFTISRDNSKNTLYLQMNSLRAEDTAVYYCAKNFFDGSWFLGPPAMDYWGQGTLVTVSSHHHHHH
notes: AS170036 VL1VH1 scFv mutein
In the case of B5, the Affinity increase in experiment [3] came to 0.4 fold. In experiment [4], binding was put at a Kd of 570 nM.

B6: LD97Y (scFv)
scFv: QSALTQPRSVSGSPGQSVTISCAGTSSDVGSENYVSWYQQHPGKAPKLMIYQVNKRASGVPDRFSGSKSGNTASLTISGLQAEDEADYYCASYRSSYHNIVFGGGTKLTVLGGGGSGGGGSGGGGSEVQLVESGGGLVQPGGSLRLSCAASGFTFSSYAMSWVRQAPGKGLEWVSTINSGTGSPYYADSVKGRFTISRDNSKNTLYLQMNSLRAEDTAVYYCAKNFFDGSWFLGPPAMDYWGQGTLVTVSSHHHHHH
notes: AS170036 VL1VH1 scFv mutein
For B6, the Affinity increase in experiment [3] came to 0.4 fold. Also, the affinity in experiment [4], expressed as Kd, was 570 nM.

B7: LD97E (scFv)
scFv: QSALTQPRSVSGSPGQSVTISCAGTSSDVGSENYVSWYQQHPGKAPKLMIYQVNKRASGVPDRFSGSKSGNTASLTISGLQAEDEADYYCASYRSSEHNIVFGGGTKLTVLGGGGSGGGGSGGGGSEVQLVESGGGLVQPGGSLRLSCAASGFTFSSYAMSWVRQAPGKGLEWVSTINSGTGSPYYADSVKGRFTISRDNSKNTLYLQMNSLRAEDTAVYYCAKNFFDGSWFLGPPAMDYWGQGTLVTVSSHHHHHH
notes: AS170036 VL1VH1 scFv mutein
For B7, the Affinity increase in experiment [3] stood at 0.4 fold. The same molecule came in with a Kd in experiment [4] of 690 nM.

B8: LD97L (scFv)
scFv: QSALTQPRSVSGSPGQSVTISCAGTSSDVGSENYVSWYQQHPGKAPKLMIYQVNKRASGVPDRFSGSKSGNTASLTISGLQAEDEADYYCASYRSSLHNIVFGGGTKLTVLGGGGSGGGGSGGGGSEVQLVESGGGLVQPGGSLRLSCAASGFTFSSYAMSWVRQAPGKGLEWVSTINSGTGSPYYADSVKGRFTISRDNSKNTLYLQMNSLRAEDTAVYYCAKNFFDGSWFLGPPAMDYWGQGTLVTVSSHHHHHH
notes: AS170036 VL1VH1 scFv mutein
In the case of B8, the Affinity increase in experiment [3] came to 0.4 fold. The same molecule displayed a Kd in experiment [4] of 640 nM.

B9: AS170036 VL1VH1 HS57Y (scFv)
scFv: QSALTQPRSVSGSPGQSVTISCAGTSSDVGSENYVSWYQQHPGKAPKLMIYQVNKRASGVPDRFSGSKSGNTASLTISGLQAEDEADYYCASYRSSDHNIVFGGGTKLTVLGGGGSGGGGSGGGGSEVQLVESGGGLVQPGGSLRLSCAASGFTFSSYAMSWVRQAPGKGLEWVSTINSGTGYPYYADSVKGRFTISRDNSKNTLYLQMNSLRAEDTAVYYCAKNFFDGSWFLGPPAMDYWGQGTLVTVSSHHHHHH
Regarding B9, the Affinity increase in experiment [1] came to 1.2 fold. This molecule also had a Kd in experiment [2] of 200 nM.

B10: AS170036 VL1VH1 HW105M (scFv)
scFv: QSALTQPRSVSGSPGQSVTISCAGTSSDVGSENYVSWYQQHPGKAPKLMIYQVNKRASGVPDRFSGSKSGNTASLTISGLQAEDEADYYCASYRSSDHNIVFGGGTKLTVLGGGGSGGGGSGGGGSEVQLVESGGGLVQPGGSLRLSCAASGFTFSSYAMSWVRQAPGKGLEWVSTINSGTGSPYYADSVKGRFTISRDNSKNTLYLQMNSLRAEDTAVYYCAKNFFDGSMFLGPPAMDYWGQGTLVTVSSHHHHHH
In experiment [1], B10 yielded an Affinity increase of 0.2 fold. Also, in experiment [2], binding was put at a Kd of 1200 nM.

B11: AS170036 VL1VH1 HS57T (scFv)
scFv: QSALTQPRSVSGSPGQSVTISCAGTSSDVGSENYVSWYQQHPGKAPKLMIYQVNKRASGVPDRFSGSKSGNTASLTISGLQAEDEADYYCASYRSSDHNIVFGGGTKLTVLGGGGSGGGGSGGGGSEVQLVESGGGLVQPGGSLRLSCAASGFTFSSYAMSWVRQAPGKGLEWVSTINSGTGTPYYADSVKGRFTISRDNSKNTLYLQMNSLRAEDTAVYYCAKNFFDGSWFLGPPAMDYWGQGTLVTVSSHHHHHH
Consider B11, for which the Affinity increase in experiment [1] came out at 1.1 fold. The molecule also yielded a Kd in experiment [2] of 220 nM.

B12: AS170036 VL1VH1 HS57W (scFv)
scFv: QSALTQPRSVSGSPGQSVTISCAGTSSDVGSENYVSWYQQHPGKAPKLMIYQVNKRASGVPDRFSGSKSGNTASLTISGLQAEDEADYYCASYRSSDHNIVFGGGTKLTVLGGGGSGGGGSGGGGSEVQLVESGGGLVQPGGSLRLSCAASGFTFSSYAMSWVRQAPGKGLEWVSTINSGTGWPYYADSVKGRFTISRDNSKNTLYLQMNSLRAEDTAVYYCAKNFFDGSWFLGPPAMDYWGQGTLVTVSSHHHHHH
As to B12, the Affinity increase in experiment [1] came out at 0.6 fold. The dissociation constant Kd in experiment [2] was 380 nM.

B13: LD97V (scFv)
scFv: QSALTQPRSVSGSPGQSVTISCAGTSSDVGSENYVSWYQQHPGKAPKLMIYQVNKRASGVPDRFSGSKSGNTASLTISGLQAEDEADYYCASYRSSVHNIVFGGGTKLTVLGGGGSGGGGSGGGGSEVQLVESGGGLVQPGGSLRLSCAASGFTFSSYAMSWVRQAPGKGLEWVSTINSGTGSPYYADSVKGRFTISRDNSKNTLYLQMNSLRAEDTAVYYCAKNFFDGSWFLGPPAMDYWGQGTLVTVSSHHHHHH
notes: AS170036 VL1VH1 scFv mutein
Turning to B13, the Affinity increase in experiment [3] was found to be 0.4 fold. Further, in experiment [4], the equilibrium dissociation constant (Kd) amounted to 660 nM.

B14: LD97P (scFv)
scFv: QSALTQPRSVSGSPGQSVTISCAGTSSDVGSENYVSWYQQHPGKAPKLMIYQVNKRASGVPDRFSGSKSGNTASLTISGLQAEDEADYYCASYRSSPHNIVFGGGTKLTVLGGGGSGGGGSGGGGSEVQLVESGGGLVQPGGSLRLSCAASGFTFSSYAMSWVRQAPGKGLEWVSTINSGTGSPYYADSVKGRFTISRDNSKNTLYLQMNSLRAEDTAVYYCAKNFFDGSWFLGPPAMDYWGQGTLVTVSSHHHHHH
notes: AS170036 VL1VH1 scFv mutein
In the case of B14, the Affinity increase in experiment [3] was determined as 0.3 fold. For the same molecule, the dissociation constant Kd in experiment [4] stood at 790 nM.

B15: LD97I (scFv)
scFv: QSALTQPRSVSGSPGQSVTISCAGTSSDVGSENYVSWYQQHPGKAPKLMIYQVNKRASGVPDRFSGSKSGNTASLTISGLQAEDEADYYCASYRSSIHNIVFGGGTKLTVLGGGGSGGGGSGGGGSEVQLVESGGGLVQPGGSLRLSCAASGFTFSSYAMSWVRQAPGKGLEWVSTINSGTGSPYYADSVKGRFTISRDNSKNTLYLQMNSLRAEDTAVYYCAKNFFDGSWFLGPPAMDYWGQGTLVTVSSHHHHHH
notes: AS170036 VL1VH1 scFv mutein
B15: the Affinity increase in experiment [3] amounted to 0.4 fold. This molecule also returned a Kd in experiment [4] of 650 nM.

B16: LD97M (scFv)
scFv: QSALTQPRSVSGSPGQSVTISCAGTSSDVGSENYVSWYQQHPGKAPKLMIYQVNKRASGVPDRFSGSKSGNTASLTISGLQAEDEADYYCASYRSSMHNIVFGGGTKLTVLGGGGSGGGGSGGGGSEVQLVESGGGLVQPGGSLRLSCAASGFTFSSYAMSWVRQAPGKGLEWVSTINSGTGSPYYADSVKGRFTISRDNSKNTLYLQMNSLRAEDTAVYYCAKNFFDGSWFLGPPAMDYWGQGTLVTVSSHHHHHH
notes: AS170036 VL1VH1 scFv mutein
For B16, in experiment [3], the Affinity increase was 0.4 fold. Moreover, in experiment [4], the Kd came out at 590 nM.

B17: LE32A (scFv)
scFv: QSALTQPRSVSGSPGQSVTISCAGTSSDVGSANYVSWYQQHPGKAPKLMIYQVNKRASGVPDRFSGSKSGNTASLTISGLQAEDEADYYCASYRSSDHNIVFGGGTKLTVLGGGGSGGGGSGGGGSEVQLVESGGGLVQPGGSLRLSCAASGFTFSSYAMSWVRQAPGKGLEWVSTINSGTGSPYYADSVKGRFTISRDNSKNTLYLQMNSLRAEDTAVYYCAKNFFDGSWFLGPPAMDYWGQGTLVTVSSHHHHHH
notes: AS170036 VL1VH1 scFv mutein
Regarding B17, the Affinity increase in experiment [3] is 0.3 fold. This molecule also yielded a Kd in experiment [4] of 700 nM.
